The record followed here is patent US9327022 (NATIONAL RESEARCH COUNCIL OF CANADA, dated 2016).

Bounds are passed on as bounds.

The target of experiment [1] is T1, human serum albumin (human, UniProt P02768 25-609).
T1 construct: also called Human albumin
The experiment in a line: SPR (Biacore 3000), immobilized albumin; upper bound of the printed KD range. (In general: SPR reads the build-up and loss of mass on a sensor chip optically.)

Experiment [2] concerns the target T2, bovine serum albumin (bovine, UniProt P02769 25-607).
T2 construct: also called BSA; Bovine albumin
As to the kind of experiment: SPR (Biacore 3000), immobilized BSA, 4 h dissociation time.
Protocol: (§1) 1700 RUs of BSA (Sigma) were immobilized on research grad CM5-sensorchip (BIACORE). Ethanolamin blocked surface was used as a reference. Immobilizations were carried out at the protein concentrations of 50 µg/ml in 10 mM acetate pH 4.5 using amin coupling kit supplied by the manufacturer. Antibodies were passed through Superdex 75™ (GE Healthcare) column to separate monomer prior to BIACORE analysis.
(§2) In all instances, analyses were carried out at 25 C in HBS-E buffer (10 mM HEPES, 150 mM NaCl, and 3 mM EDTA, pH 7.4) supplemented with 0.005% surfactant P20 at a flow rate of 20 µl/min. The surfaces were regenerated with 100 mM HCl (3 seconds). Data were analyzed with BIAevaluation 4.1 software.
(§3) Each binding was performed three times, and the obtained data were reproducible.

The target in experiment [3] is T2, bovine serum albumin. As to the kind of experiment: SPR (Biacore 3000), immobilized BSA, extended dissociation.
Protocol: as §1, §2, §3
For experiment [4], the target named is T2, bovine serum albumin. As to the kind of experiment: SPR (Biacore 3000), immobilized BSA.
Protocol: as §1, §2
In the next experiment the target is T3, guinea pig serum albumin (guinea pig).
T3 construct: also called Guinea pig albumin
As to the kind of experiment: SPR (Biacore 3000), immobilized albumin.

The target of experiment [5] is T2, bovine serum albumin. As to the kind of experiment: SPR (Biacore 3000), immobilized albumin.
Protocol: as §1, §2
A further experiment concerns the target T4, sheep serum albumin (sheep, UniProt P14639 25-607).
T4 construct: also called Sheep albumin
The experiment in a line: SPR (Biacore 3000), immobilized albumin.

A further experiment has as its target T5, porcine serum albumin (porcine, UniProt P08835 25-607).
T5 construct: also called Porcine albumin
As to the kind of experiment: SPR (Biacore 3000), immobilized albumin.

Another experiment addresses T6, canine serum albumin (canine, UniProt P49822 25-608).
T6 construct: also called Canine albumin
As to the kind of experiment: SPR (Biacore 3000), immobilized albumin.

The next experiment deals with T7, goat serum albumin (goat).
T7 construct: also called Goat albumin
T7 sequence (P85295 whole entry, looked up): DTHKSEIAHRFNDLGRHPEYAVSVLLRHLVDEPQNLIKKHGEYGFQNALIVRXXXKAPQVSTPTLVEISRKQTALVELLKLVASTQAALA
As to the kind of experiment: SPR (Biacore 3000), immobilized albumin.

The next experiment has as its target T8, murine serum albumin (murine, UniProt P07724 25-608).
T8 construct: also called Murine albumin
The experiment in a line: SPR (Biacore 3000), immobilized albumin.

The target of experiment [6] is T1, human serum albumin. As to the kind of experiment: SPR (Biacore 3000), immobilized albumin; lower bound of the printed KD range.
In experiment [7] the target is T2, bovine serum albumin. The experiment in a line: SPR (Biacore 3000), immobilized BSA. This is another data set of the same source.
Protocol: as §1, §2

T5 sequence (P08835 25-607 limits assumed): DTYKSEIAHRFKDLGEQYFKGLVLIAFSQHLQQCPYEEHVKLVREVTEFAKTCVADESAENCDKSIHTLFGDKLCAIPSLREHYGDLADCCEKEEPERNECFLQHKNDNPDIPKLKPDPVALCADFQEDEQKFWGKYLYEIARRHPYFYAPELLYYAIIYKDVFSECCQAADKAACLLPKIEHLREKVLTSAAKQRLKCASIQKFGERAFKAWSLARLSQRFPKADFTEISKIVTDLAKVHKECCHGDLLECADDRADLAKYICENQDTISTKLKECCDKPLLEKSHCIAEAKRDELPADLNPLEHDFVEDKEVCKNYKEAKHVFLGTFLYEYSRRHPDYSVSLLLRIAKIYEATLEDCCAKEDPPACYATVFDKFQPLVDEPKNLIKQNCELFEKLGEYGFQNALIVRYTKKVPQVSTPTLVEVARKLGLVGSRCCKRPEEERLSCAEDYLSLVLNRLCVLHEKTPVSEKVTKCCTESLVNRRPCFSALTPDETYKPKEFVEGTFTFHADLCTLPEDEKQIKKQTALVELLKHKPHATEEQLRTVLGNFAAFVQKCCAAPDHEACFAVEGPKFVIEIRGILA
T2 sequence (P02769 25-607 limits assumed): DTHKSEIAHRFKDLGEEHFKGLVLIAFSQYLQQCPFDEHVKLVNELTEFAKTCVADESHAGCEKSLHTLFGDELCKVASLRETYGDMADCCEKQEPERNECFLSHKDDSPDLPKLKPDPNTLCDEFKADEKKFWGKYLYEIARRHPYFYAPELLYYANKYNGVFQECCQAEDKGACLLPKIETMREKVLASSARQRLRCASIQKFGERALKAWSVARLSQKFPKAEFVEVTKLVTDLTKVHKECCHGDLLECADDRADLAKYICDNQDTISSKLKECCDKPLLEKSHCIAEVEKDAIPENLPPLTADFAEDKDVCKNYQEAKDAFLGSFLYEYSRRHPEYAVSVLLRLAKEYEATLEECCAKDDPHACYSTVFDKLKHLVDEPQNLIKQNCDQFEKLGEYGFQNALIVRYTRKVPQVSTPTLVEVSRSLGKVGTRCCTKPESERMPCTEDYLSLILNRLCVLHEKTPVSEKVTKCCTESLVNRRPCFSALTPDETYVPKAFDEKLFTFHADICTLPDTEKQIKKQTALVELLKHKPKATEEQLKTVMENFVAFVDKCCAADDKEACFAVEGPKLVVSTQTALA
T1 sequence (P02768 25-609 limits assumed): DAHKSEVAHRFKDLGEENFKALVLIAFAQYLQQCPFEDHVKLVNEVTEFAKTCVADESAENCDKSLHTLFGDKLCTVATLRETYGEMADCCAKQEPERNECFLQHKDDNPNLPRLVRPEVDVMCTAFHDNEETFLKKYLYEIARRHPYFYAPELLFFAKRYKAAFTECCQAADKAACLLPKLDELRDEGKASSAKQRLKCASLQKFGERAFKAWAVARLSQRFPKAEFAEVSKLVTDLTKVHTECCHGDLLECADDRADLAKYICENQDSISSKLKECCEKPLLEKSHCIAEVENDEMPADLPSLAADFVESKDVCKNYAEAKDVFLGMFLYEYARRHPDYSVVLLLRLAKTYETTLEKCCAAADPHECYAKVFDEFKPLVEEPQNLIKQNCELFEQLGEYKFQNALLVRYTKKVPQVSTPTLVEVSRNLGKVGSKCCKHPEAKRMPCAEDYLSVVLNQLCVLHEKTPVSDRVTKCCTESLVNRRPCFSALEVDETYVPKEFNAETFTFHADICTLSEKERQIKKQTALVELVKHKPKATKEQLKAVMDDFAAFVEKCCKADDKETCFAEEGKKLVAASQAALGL
T6 sequence (P49822 25-608 limits assumed): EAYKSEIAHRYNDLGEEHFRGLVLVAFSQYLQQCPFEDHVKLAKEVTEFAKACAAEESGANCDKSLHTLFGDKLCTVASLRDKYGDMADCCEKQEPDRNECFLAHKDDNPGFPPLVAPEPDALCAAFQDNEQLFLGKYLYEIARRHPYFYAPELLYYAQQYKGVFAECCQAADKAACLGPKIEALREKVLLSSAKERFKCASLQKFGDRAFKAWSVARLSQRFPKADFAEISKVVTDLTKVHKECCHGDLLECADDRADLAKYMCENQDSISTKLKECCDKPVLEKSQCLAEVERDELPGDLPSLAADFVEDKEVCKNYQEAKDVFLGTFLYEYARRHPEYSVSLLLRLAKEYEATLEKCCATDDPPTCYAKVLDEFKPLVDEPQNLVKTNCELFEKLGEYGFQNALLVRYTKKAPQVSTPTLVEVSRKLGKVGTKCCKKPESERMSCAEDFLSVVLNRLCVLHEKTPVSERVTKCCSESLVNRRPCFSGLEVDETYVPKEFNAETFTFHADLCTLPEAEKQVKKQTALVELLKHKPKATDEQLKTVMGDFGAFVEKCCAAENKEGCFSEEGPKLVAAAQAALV
T4 sequence (P14639 25-607 limits assumed): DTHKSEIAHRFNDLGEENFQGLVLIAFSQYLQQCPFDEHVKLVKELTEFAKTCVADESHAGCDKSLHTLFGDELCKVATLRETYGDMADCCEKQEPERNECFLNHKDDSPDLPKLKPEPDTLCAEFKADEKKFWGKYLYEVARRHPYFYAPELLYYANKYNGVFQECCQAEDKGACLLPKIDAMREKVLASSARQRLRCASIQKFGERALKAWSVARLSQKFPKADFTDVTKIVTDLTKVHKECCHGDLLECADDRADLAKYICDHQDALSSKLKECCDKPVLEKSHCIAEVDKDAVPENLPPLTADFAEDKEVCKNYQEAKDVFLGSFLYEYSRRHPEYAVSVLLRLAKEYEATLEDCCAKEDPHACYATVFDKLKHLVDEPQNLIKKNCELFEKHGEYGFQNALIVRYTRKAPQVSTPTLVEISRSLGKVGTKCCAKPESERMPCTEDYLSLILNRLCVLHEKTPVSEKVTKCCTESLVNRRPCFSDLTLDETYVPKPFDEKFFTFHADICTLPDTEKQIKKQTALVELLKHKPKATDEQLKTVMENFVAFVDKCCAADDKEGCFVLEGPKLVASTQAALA
Protocol for canine serum albumin: as §1, §2
Protocol for goat serum albumin: as §1, §2
Protocol for guinea pig serum albumin: as §1, §2
Protocol for murine serum albumin: as §1, §2
Protocol for porcine serum albumin: as §1, §2
Protocol for sheep serum albumin: as §1, §2

B1: BSA12 (VHH)
VHH: QVKLEESGGGLVQVGDSLRLSCAASGRTFSNYTMAWFRQFPGKEREFVAVVSRGGGATDYADSVKGRFTISRDNAKNTMYLQMNSLKTDTAVYYCAAGTDLSYYYSTKKWAYWGQGTQVTVSS
notes: also called sdAb BSA12; pBSA12 product
For B1, the equilibrium dissociation constant (Kd) with human serum albumin [1] is under 500000 nM; in the experiment with bovine serum albumin [4], 0.004 nM; with guinea pig serum albumin it was 730 nM; in the experiment with bovine serum albumin [5], 0.0036 nM; with sheep serum albumin, 1000 nM; with porcine serum albumin it was 380 nM. Besides, the Kd in the experiment with canine serum albumin is 1400 nM; with goat serum albumin, 240 nM; with murine serum albumin it was 59 nM; with human serum albumin [6], over 10000 nM. Besides, the koff was determined as 9e-06 s⁻¹ in the experiment with bovine serum albumin [2]; 1e-05 s⁻¹ with bovine serum albumin [3]; 0.6 s⁻¹ with guinea pig serum albumin; 9e-06 s⁻¹ with bovine serum albumin [5]; 0.22 s⁻¹ with porcine serum albumin; 0.3 s⁻¹ with goat serum albumin. Also, the koff with murine serum albumin stood at 0.16 s⁻¹. Moreover, the kon with bovine serum albumin [4] was 2.5e+06 M⁻¹ s⁻¹; with guinea pig serum albumin it was 830000 M⁻¹ s⁻¹; with bovine serum albumin [5], 2.5e+06 M⁻¹ s⁻¹; with porcine serum albumin it was 680000 M⁻¹ s⁻¹; with goat serum albumin, 1.2e+06 M⁻¹ s⁻¹; with murine serum albumin, 2.7e+06 M⁻¹ s⁻¹.

B2: BSA16 (VHH)
VHH: QVKLEESGGGLVQAGGSLRLSCAPSGRTFRTWRMGWFRQAPGKEREFVAAINLNTGNTYYVDSVKGRFTISGDYAKNTLYLQMNSLKPEDTAVYFCAARSPDSDYVPLSSIDYQYWGQGTQVTVSS
notes: also called sdAb BSA16; pBSA16 product
On to B2, for which, in the experiment with bovine serum albumin [4], the dissociation constant (Kd) is 280 nM, the off-rate constant (koff) was determined as 0.27 s⁻¹ and the kon stood at 1e+06 M⁻¹ s⁻¹.

B3: BSA8 (VHH)
VHH: QVKLEESGGGLAQAGGSLRLSCAASERTFIRYTIGWFRQAPGKEREFVGRVNWSGGDTYYADSVKGRFTISRDNAKTTVTLQMSSLKPEDTAVYSCAASPKWSEIPREYIYWGPGTQVTVSS
notes: also called sdAb BSA8; pBSA8 product
As to B3, the Kd in the experiment with bovine serum albumin [4] is about 100 nM. Moreover, in the experiment with bovine serum albumin [7], the off-rate constant (koff) was 0.005 s⁻¹.

One may read the Kd as the constant that tells how readily two partners part at equilibrium. A lower Kd goes with higher affinity. The koff is a measure of how fast the partners let go of each other. The low end stands for slow dissociation, the high end for fast dissociation. By kon is commonly meant a measure of how fast the partners come together. Low readings indicate slower complex formation, high ones faster complex formation.
